Each structure is given as a SMILES string. Numbered stars: 1 amine (or outer) side, 2 acyl side, 3 side chain; on linkers, the order of the positions; unused ones are H or OH. Square brackets hold non-standard residues; d marks the D form. Peptide text beside a SMILES is read from it. * marks the point of attachment. NOTA = O=C(O)CN1CCN(CC(=O)O)CCN(CC(=O)*)CC1; γGlu = O=C(O)[C@H](CCC(=O)[*:2])N[*:1]; Sta = CC(C)C[C@H](N)[C@@H](O)CC(=O)O; AEEA = NCCOCCOCC(=O)O; Aoc = NCCCCCCCC(=O)O; CO = O=C([*:1])[*:2]

Consider two compounds from article PMC7408065, “Heterodimeric Radiotracer Targeting PSMA and GRPR for Imaging of Prostate Cancer—Optimization of the Affinity towards PSMA by Linker Modification in Murine Model” (Pharmaceutics, 2020).

Data set [1] in a line: Distribution coefficient (LogD), n-octanol/water. The following applies: indium-111 labeled compound. The class given is physicochemical. The procedure: The tube was vortexed, centrifuged and fractions (100 µL) from each phase were collected and activity was measured using a gamma counter. The experiment was repeated twice for each compound.
The nature of a further data set: in vivo. Also on record: species or system BALB/c nu/nu mice. The conditions noted are these: BALB/c nu/nu, mouse, 40 pmol/animal, total radioactivity; for tissue uptake at 1 h: Activity uptake; for tissue to tissue ratio at 1 h / tissue to tissue ratio at 3 h / tissue to tissue ratio at 24 h: Tumor-to-organ ratio. The procedure:
(§1) The in vivo experiments were performed using BALB/c nu/nu mice bearing PC3-pip xenografts. The mice were implanted with 5 × 10^6 PC3-pip cells 12 days prior to the experiments. In vivo experiments were planned and performed in accordance with the national legislation on laboratory animals’ protection and were approved by the Ethics Committee for Animal Research in Uppsala, Sweden. PC3-pip tumor-bearing mice were injected with 40 pmol (30 kBq) of [^111In]In-BQ7812 per mouse. Groups were also co-injected with 7.5 nmol of non-labeled NOTA-PEG4-RM26 and/or 7.5 nmol of non-labeled PSMA-11 to block GRPR and/or PSMA. Mice were euthanized at 1, 3 and 24 h pi. Organs of interest were collected, weighed and the activity uptake in each organ was measured using a gamma counter.

The test system of a further data set is PC3-pip xenografts. Nature of the data set: in vivo. The arrangement: species or system BALB/c nu/nu mice. The conditions noted are these: mouse. The procedure:
as §1

For the compound `CC(C)C[C@H](NC(=O)C[C@H](O)[C@H](CC(C)C)NC(=O)[C@H](Cc1c[nH]cn1)NC(=O)CNC(=O)[C@@H](NC(=O)[C@H](C)NC(=O)[C@H](Cc1c[nH]c2ccccc12)NC(=O)[C@H](CCC(N)=O)NC(=O)[C@@H](Cc1ccccc1)NC(=O)COCCOCCNC(=O)[C@H](CCCCNC(=O)CN1CCN(CC(=O)O)CCN(CC(=O)O)CC1)NC(=O)[C@H](Cc1ccccc1)NC(=O)CCCCCCCNC(=O)CC[C@H](NC(=O)N[C@@H](CCC(=O)O)C(=O)O)C(=O)O)C(C)C)C(N)=O` [BQ7812] ({Glu-CO-γGlu-Aoc}-FK(NOTA)[AEEA][dF]QWAVGH[Sta]L-NH2), in data set [1], the logD (usually the decadic logarithm of the distribution of all forms, ionised or not, between an organic phase and buffer at a given pH) is -1.44.

For `CC(C)C[C@H](NC(=O)C[C@H](O)[C@H](CC(C)C)NC(=O)[C@H](Cc1c[nH]cn1)NC(=O)CNC(=O)[C@@H](NC(=O)[C@H](C)NC(=O)[C@H](Cc1c[nH]c2ccccc12)NC(=O)[C@H](CCC(N)=O)NC(=O)[C@@H](Cc1ccccc1)NC(=O)COCCOCCNC(=O)[C@H](CCCCNC(=O)CN1CCN(CC(=O)O)CCN(CC(=O)O)CC1)NC(=O)[C@H](Cc1ccccc1)NC(=O)CCCCCCCNC(=O)CC[C@H](NC(=O)N[C@@H](CCC(=O)O)C(=O)O)C(=O)O)C(C)C)C(N)=O` [[^111In]In-BQ7812, metal not drawn] ({Glu-CO-γGlu-Aoc}-FK(NOTA)[AEEA][dF]QWAVGH[Sta]L-NH2), the tissue uptake (usually the percentage of the injected dose found per gram of tissue) at 1 h is 1.34 %ID/g in the data set “in vivo” (Lung) and 5.83 %ID/g in the data set “in vivo” (Pancreas). The tissue to tissue ratio at 1 h in the data set “in vivo” (Blood) was 11.7 ± 2.3; in the data set “in vivo” (Bone), 24.5 ± 3.25; in “in vivo” (Kidney), 0.27 ± 0.07; in “in vivo” (Liver) it was 4.56 ± 0.77; in “in vivo” (Lung), 12.3 ± 1.34; in “in vivo” (Muscle), 41 ± 7.76. The tissue to tissue ratio at 1 h turned out to be 2.77 ± 0.43 in the data set “in vivo” (Pancreas); 18.7 ± 2.6 in the data set “in vivo” (Salivary glands); 9.31 ± 1.8 in the data set “in vivo” (Small intestine); 11.5 ± 2.37 in the data set “in vivo” (Spleen); 12.5 ± 2.36 in “in vivo” (Stomach). Moreover, the tissue to tissue ratio at 3 h in “in vivo” (Blood) stood at 55.5 ± 15.6; in the data set “in vivo” (Bone), 35.1 ± 25.7; in “in vivo” (Kidney), 0.39 ± 0.09; in the data set “in vivo” (Liver) it was 3.08 ± 1; in the data set “in vivo” (Lung), 25.3 ± 10; in “in vivo” (Muscle) it was 53.3 ± 24.4. Also, the tissue to tissue ratio at 3 h in “in vivo” (Pancreas) was 10.9 ± 3.05; in “in vivo” (Salivary glands) it was 20.6 ± 7.98; in the data set “in vivo” (Small intestine) it was 13.4 ± 3.68; in “in vivo” (Spleen), 20.8 ± 5.1; in the data set “in vivo” (Stomach) it was 18.3 ± 2.8. Also, the tissue to tissue ratio at 24 h was determined as 68.9 ± 10.4 in the data set “in vivo” (Blood); 10.9 ± 2.46 in the data set “in vivo” (Bone); 0.18 ± 0.02 in the data set “in vivo” (Kidney); 1.04 ± 0.15 in the data set “in vivo” (Liver); 13.9 ± 1.65 in the data set “in vivo” (Lung); 23.6 ± 4.58 in the data set “in vivo” (Muscle). The tissue to tissue ratio at 24 h was 8.19 ± 1.92 in “in vivo” (Pancreas); 7.39 ± 1.88 in the data set “in vivo” (Salivary glands); 5.52 ± 2.17 in the data set “in vivo” (Small intestine); 6.32 ± 1.59 in “in vivo” (Spleen); 10.5 ± 2.28 in the data set “in vivo” (Stomach). Moreover, the “tumor-to-liver ratio” value in the data set with PC3-pip xenografts is “over five”.
